Publication PMC7948479, “Allostery in the nitric oxide dioxygenase mechanism of flavohemoglobin” (The Journal of Biological Chemistry, 2020)
Where two headings read alike, the source gives them in different places.

Legend:
[1] = test system: E. coli flavoHb-NOD
Method: NOD activity was measured amperometrically in 100 mM phosphate buffer, pH 7.0, containing 0.3 mM EDTA, 100 μg/ml bovine serum albumin (BSA) (Fraction V), 100 μM NADH, 0.1 μM FAD with NO, O2, and N2 mixtures added as described ([4], [72]). NADH oxidase activity was followed spectrophotometrically at 340 nm in a 1.0-ml cuvette containing 90 mM Tris chloride buffer, pH 8.2, 100 μM NADH, 200 μM O2, 0.1 μM FAD, 100 μg/ml BSA, and 0.3 mM EDTA and incubated at 37 °C. Cytochrome b5 reductase activity was assayed at 37 °C by following the rate of absorbance increase at 555 nm in a 1.0-ml reaction buffered with 90 mM Tris chloride, pH 8.2, and containing 10 μM ferric cytochrome b5, 200 μM O2, 20 μM NADH, 0.1 μM FAD, 100 μg/ml BSA, and 0.3 mM EDTA. TMAO reductase activity was assayed by following the absorbance decrease at 340 nm in a 1.0-ml anaerobic reaction containing 12 U Aspergillus niger glucose oxidase, 5 mM glucose, 260 U catalase, 400 mM TMAO, 100 μM NADH, 0.1 μM FAD, 100 μg/ml BSA, and 0.3 mM EDTA in 90 mM Tris chloride pH 8.2 and incubated at 37 °C. Ngb reductase activity was assayed by following the absorbance increase at 424 nm in a 1.0-ml anaerobic reaction containing 12 U glucose oxidase, 5 mM glucose, 260 U catalase, 5 μM Ngb, 50 μM NADH, 0.1 μM FAD, 100 μg/ml BSA, and 0.3 mM EDTA in 90 mM Tris chloride buffer, pH 8.2, and incubated at 37 °C. Methyl viologen reductase activity was assayed by following the formation of the blue cation radical at 603 nm and by applying an extinction coefficient of 13,300 M^−1 cm^−1 in a 1.0-ml anaerobic reaction buffered with 10 mM potassium phosphate, pH 7.0, and containing 12 U glucose oxidase, 5 mM glucose, 260 U catalase, 100 μM NADH, 0.1 μM FAD, 100 μg/ml BSA, 0.3 mM EDTA, and 200 mM sodium chloride and incubated at 37 °C. NO reductase activity was assayed amperometrically at 37 °C in a 1.0-ml anaerobic reaction containing 2 μM NO, 100 μM NADH, 0.1 μM FAD, 12 U glucose oxidase, 5 mM glucose, 260 U catalase, 100 μg/ml BSA, and 0.3 mM EDTA buffered with 10 mM potassium phosphate pH 7.0. CO effects were tested at a final concentration of 50 μM as diluted from a 1 mM stock in water. All activities are reported relative to the heme content of flavoHb.

[2] = Methyl viologen reductase activity; assay type: biochemical; conditions: 37 °C; anaerobic
Method: NADH oxidase activity was followed spectrophotometrically at 340 nm in a 1.0-ml cuvette containing 90 mM Tris chloride buffer, pH 8.2, 100 μM NADH, 200 μM O2, 0.1 μM FAD, 100 μg/ml BSA, and 0.3 mM EDTA and incubated at 37 °C. […] TMAO reductase activity was assayed by following the absorbance decrease at 340 nm in a 1.0-ml anaerobic reaction containing 12 U Aspergillus niger glucose oxidase, 5 mM glucose, 260 U catalase, 400 mM TMAO, 100 μM NADH, 0.1 μM FAD, 100 μg/ml BSA, and 0.3 mM EDTA in 90 mM Tris chloride pH 8.2 and incubated at 37 °C. […] Methyl viologen reductase activity was assayed by following the formation of the blue cation radical at 603 nm and by applying an extinction coefficient of 13,300 M^−1 cm^−1 in a 1.0-ml anaerobic reaction buffered with 10 mM potassium phosphate, pH 7.0, and containing 12 U glucose oxidase, 5 mM glucose, 260 U catalase, 100 μM NADH, 0.1 μM FAD, 100 μg/ml BSA, 0.3 mM EDTA, and 200 mM sodium chloride and incubated at 37 °C. NO reductase activity was assayed amperometrically at 37 °C in a 1.0-ml anaerobic reaction containing 2 μM NO, 100 μM NADH, 0.1 μM FAD, 12 U glucose oxidase, 5 mM glucose, 260 U catalase, 100 μg/ml BSA, and 0.3 mM EDTA buffered with 10 mM potassium phosphate pH 7.0. CO effects were tested at a final concentration of 50 μM as diluted from a 1 mM stock in water. […]

[3] = test system: flavoHb; design: method as in PMID 22948361; conditions: cited from earlier work
[4] = test system: E. coli flavoHb-NOD; conditions: entry of O2 into the LT, value assumed for fitting, cited from earlier work
[5] = molecular target: E. coli flavoHb-NOD (Escherichia coli, UniProt P24232); conditions: read-out: theoretical Km(O2) (Vmax/k'O2); cited from earlier work
[6] = test system: ferric cytochrome b5; assay: Cytochrome b5 reductase activity; assay type: biochemical, rat; conditions: 37 °C; 10 μM ferric cytochrome b5
Source text: Reagents were purchased from Sigma-Aldrich Chemical Co (St Louis, MO, USA) unless otherwise stated. DNA primers were synthesized at the University of Cincinnati Medical Center DNA facility. Praxair (Bethlehem, PA, USA) was the supplier of 99.993% O2, 99.999% CO, and 99.98% N2. Bovine liver catalase (260,000 U/ml) was obtained from Roche Applied Science. Recombinant rat cytochrome b5 (soluble form) and murine Ngb were expressed in E. coli and purified essentially as described ([10], [70]). NADH purity (≥95%) was assessed by the ratio of the 340 to 260 nm absorbance with a value of 0.437 equal to 100% reduced.

B1: WT: wild-type E. coli flavohemoglobin (flavoHb), an NO dioxygenase (NOD) (protein, UniProt P24232 1-396, looked up)
Flavohemoprotein: MLDAQTIATVKATIPLLVETGPKLTAHFYDRMFTHNPELKEIFNMSNQRNGDQREALFNAIAAYASNIENLPALLPAVEKIAQKHTSFQIKPEQYNIVGEHLLATLDEMFSPGQEVLDAWGKAYGVLANVFINREAEIYNENASKAGGWEGTRDFRIVAKTPRSALITSFELEPVDGGAVAEYRPGQYLGVWLKPEGFPHQEIRQYSLTRKPDGKGYRIAVKREEGGQVSNWLHNHANVGDVVKLVAPAGDFFMAVADDTPVTLISAGVGQTPMLAMLDTLAKAGHTAQVNWFHAAENGDVHAFADEVKELGQSLPRFTAHTWYRQPSEADRAKGQFDSEGLMDLSKLEGAFSDPTMQFYLCGPVGFMQFTAKQLVDLGVKQENIHYECFGPHKVL
- Δv/Δ[NADH] ([1]; 20 °C): 36 s⁻¹ µM⁻¹
- Δv/Δ[NADH] ([1]; 20 °C, 130 nM NO): 30 s⁻¹ µM⁻¹
- Δv/Δ[NADH] ([1]; 37 °C): 59 s⁻¹ µM⁻¹
- Δv/Δ[NADH] ([1]; 37 °C, 130 nM NO): 59 s⁻¹ µM⁻¹
- methyl viologen reductase activity [2]: 0.36 s^−1
- kET by time-resolved pulse radiolysis [3]: 6800 s⁻¹
- K1 ([4]; 20 °C): 2 (2) Micromolar
- K1 ([4]; 37 °C): 2 (2) Micromolar
- Km [5]: ~2 µM
- cytochrome b5 reductase activity [6]: 0.14 s⁻¹
